Reference: patent publication US20230416361A1 (MIROBIO, published 2023)

Key:
[1] = biological target: T1, human CD200RLa extracellular domain fused to mouse CD80 transmembrane and intracellular tail, on HEK293T cells (human; mouse, UniProt Q6Q8B3 24-239; Q00609 247-306, limits assumed); test: flow cytometry on transiently transfected HEK293T cells
T1 construct: extracellular domain;domain: transmembrane and intracellular tail; also called human CD200RLa chimeric construct
T1 sequence (looked up): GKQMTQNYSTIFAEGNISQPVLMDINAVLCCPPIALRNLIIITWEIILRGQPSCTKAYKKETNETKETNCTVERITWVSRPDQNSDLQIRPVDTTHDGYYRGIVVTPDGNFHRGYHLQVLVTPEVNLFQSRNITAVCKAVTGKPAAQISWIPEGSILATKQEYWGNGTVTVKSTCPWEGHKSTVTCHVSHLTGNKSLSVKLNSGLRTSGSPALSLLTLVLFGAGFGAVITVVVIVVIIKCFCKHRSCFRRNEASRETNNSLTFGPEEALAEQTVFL
Experimental: (§1) The binding of CD200R antibodies to human and cyno CD200R and CD200RLa constructs was assessed by flow cytometry of transiently transfected cells. CD200RLa has a charged transmembrane (TM) that is not expected to express well in the absence of appropriate binding partners. Therefore, in addition to the full length CD200RLa constructs, chimeric constructs were used consisting of the CD200RLa extracellular domain fused to mouse CD80 transmembrane and intracellular tail to enable cell surface expression.
(§2) HEK293T cells were plated out at 1 million cells per well in a 6 well plate the day before transfection. The following day cells were transfected with CD200R constructs using 2.5 μg plasmid DNA (a pcDNA3.4 vector containing the CD200R construct sequence) and 10 μl Lipofectamine 2000 (mixed in 200 μl Optimem for 5 minutes then added dropwise to cells). 48 hours after transfection, cells were collected by vigorous pipetting in cold PBS and 50,000 cells pelleted per well in 96 well U bottom plates.
(§3) Cells were then washed and stained for 30 minutes with a secondary staining mix containing a live/dead marker (Near IR LD, Biolegend cat #423106) and APC anti-hIgG (clone QA19A42, Biolegend cat #366906) or AF647 anti-mIgG1 (clone RMG1-1, cat #406618). As a control, cells were separately stained with the commercial anti-CD200R clone OX108 directly labelled with AF647 (Biolegend cat #329308). Finally, cells were washed and resuspended in FACS buffer for acquisition on a FACS Celesta flow cytometer.

[2] = biological target: T2, human CD200RLa full length construct on HEK293T cells (human, UniProt Q6Q8B3 24-271); test: as above
T2 construct: whole, on cells; also called CD200R1L
T2 sequence (looked up): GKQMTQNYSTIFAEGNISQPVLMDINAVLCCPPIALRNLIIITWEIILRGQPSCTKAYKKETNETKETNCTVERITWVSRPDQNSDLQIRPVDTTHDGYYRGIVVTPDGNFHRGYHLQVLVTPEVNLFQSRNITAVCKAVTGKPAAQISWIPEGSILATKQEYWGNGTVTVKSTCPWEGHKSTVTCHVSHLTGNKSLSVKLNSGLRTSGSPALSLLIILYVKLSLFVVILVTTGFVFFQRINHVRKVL
Experimental: as §1, §2, §3

[3] = biological target: T3, soluble cynomolgus macaque CD200R1 extracellular domain (cynomolgus macaque, UniProt G7NZT0 29-266); test: SPR, captured antibody, soluble monomeric receptor injected, single cycle kinetics, 37 C
T3 construct: extracellular domain; also called Cynomolgus CD200R
T3 sequence: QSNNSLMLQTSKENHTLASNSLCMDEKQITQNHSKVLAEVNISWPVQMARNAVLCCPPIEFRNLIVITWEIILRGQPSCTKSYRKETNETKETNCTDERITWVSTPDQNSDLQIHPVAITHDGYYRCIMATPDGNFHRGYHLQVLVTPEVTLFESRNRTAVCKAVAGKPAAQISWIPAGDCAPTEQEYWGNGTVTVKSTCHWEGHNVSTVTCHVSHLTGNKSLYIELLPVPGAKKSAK
Experimental: (§4) The binding affinity and kinetics of the CD200R antibodies of the present disclosure to human or cynomolgus CD200R were determined by surface plasmon resonance (SPR) using the Biacore T200 (GE Healthcare). Mouse antibody capture kit (GE Healthcare) was used to coat a Series S CM5 Sensor Chip (GE Healthcare) with polyclonal anti-mouse IgG.
(§5) Anti-CD200R antibody was captured onto the biosensor surface and a negative control antibody (clone Mopc21; Biolegend) captured in the reference channel. Various concentrations of monomeric soluble human CD200R extracellular domain, soluble cynomolgus macaque CD200R1 extracellular domain or soluble cynomolgus macaque CD200RLa (a highly homologous activating receptor) were injected over the immobilized antibodies in the buffer 10 mM Hepes, 150 mM NaCl, 0.005% v/v Surfactant P20, pH 7.4 (HBS-P) at 37° C., in a single cycle kinetics analysis. Association and dissociation rates were fitted using BiaEvaluation Software (GE Healthcare) after reference and blank subtractions, and dissociation constants were calculated (Table 2).

[4] = biological target: T4, monomeric soluble human CD200R extracellular domain (human, UniProt Q8TD46 29-265); test: as above
T4 construct: extracellular domain; also called hCD200R; monomeric CD200R protein
T4 sequence (looked up): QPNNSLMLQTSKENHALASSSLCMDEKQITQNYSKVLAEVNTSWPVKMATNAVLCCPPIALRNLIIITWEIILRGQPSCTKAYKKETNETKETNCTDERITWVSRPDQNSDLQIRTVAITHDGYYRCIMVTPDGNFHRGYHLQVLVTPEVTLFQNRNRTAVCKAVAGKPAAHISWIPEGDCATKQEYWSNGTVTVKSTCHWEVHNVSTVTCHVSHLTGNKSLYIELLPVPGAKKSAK
Experimental: as §4, §5

[5] = biological target: T5, cyno CD200RLa full length construct on cells (cynomolgus, UniProt A0A2K5W6R0 30-275); test: flow cytometry
T5 construct: whole, on cells; also called cynomolgus CD200RLa expressed on cells
T5 sequence: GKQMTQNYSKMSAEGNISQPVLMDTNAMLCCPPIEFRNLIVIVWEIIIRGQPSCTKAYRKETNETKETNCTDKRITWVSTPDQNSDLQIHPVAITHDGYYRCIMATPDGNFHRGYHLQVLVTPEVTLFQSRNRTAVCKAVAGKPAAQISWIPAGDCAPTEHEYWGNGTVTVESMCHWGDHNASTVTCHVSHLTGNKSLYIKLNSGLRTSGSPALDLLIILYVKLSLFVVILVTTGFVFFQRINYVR
Experimental: as §1, §2
as §3, with “Finally, cells were washed and resuspended in FACS buffer for acquisition on a FACS Celesta flow cytometer.” left out

binding result [1]: no binding (tested: 10 ug/ml)
binding result [2]: no binding (tested: 10 ug/ml)
Kd [3]: 0.00825 nM
binding result [5]: no binding
B1: anti-CD200R antibody clone 21.3.1 (mIgG1k isotype) (antibody, V domains shown)
VH: QVQLQQPGSELVRPGASVKLSCKASGHTFTSYWMHWVKQRPGQGLEWIGNIYPGSGSINYDEKFKSKAKLTVDTSSRTAYMQLSSLTSEDSAVYYCLTMTGTSWGQGTLVTVSA
VL: DVQMIQSPSSLSASLGDIVTMTCQASQGTPINLHWFQQKPGKAPKLLISGASNLEDGVPSRFSGSRYGTAFTLTISSLEDEDMATYFCLQFTYIPWTFGGGTKLEIKR
notes: Murine hybridoma antibody, IgG1 kappa
Kd [4]: 0.3 nM
